The supplement of paper PMC9112550, “Optimization of the antimicrobial peptide Bac7 by deep mutational scanning” (BMC Biology, 2022)

System: Escherichia coli TOP10
Test: shrunken log2 fold change of peptide-encoding DNA abundance (4.5 h post-induction vs induction); higher = less antimicrobial activity (less host growth inhibition)
Conditions: time post-induction: 4.5 h; library: site-saturation at positions 5, 18, 19, 20
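Note: peptides expressed intracellularly from a pBAD plasmid library in pooled LB shake-flask culture, induced with 0.3% L-arabinose, DNA abundance read by NGS, three biological replicates, DESeq2 with apeglm shrinkage.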

| Sequence | shrunken log2 fold change |
| --- | --- |
| RRIRWRPPRLPRPRPRPVNNPRP | 0.018 |
| RRIRVRPPRLPRPRPRPVQFPRP | -0.488 |
| RRIRIRPPRLPRPRPRPPAYPRP | -0.384 |
| RRIRERPPRLPRPRPRPGPEPRP | 0.129 |
| RRIRPRPPRLPRPRPRPYFQPRP | -0.593 |
| RRIRSRPPRLPRPRPRPIMIPRP | -0.426 |
| RRIRLRPPRLPRPRPRPWTGPRP | -0.0428 |
| RRIRKRPPRLPRPRPRPYGSPRP | -0.224 |
| RRIRMRPPRLPRPRPRPFEYPRP | -0.219 |
| RRIRTRPPRLPRPRPRPVCRPRP | 0.0309 |
| RRIRFRPPRLPRPRPRPAMIPRP | -0.397 |
| RRIRSRPPRLPRPRPRPVSKPRP | 0.236 |
| RRIRQRPPRLPRPRPRPTSSPRP | 0.088 |
| RRIRPRPPRLPRPRPRPNDDPRP | -0.188 |
| RRIRKRPPRLPRPRPRPRPDPRP | 0.446 |
| RRIRWRPPRLPRPRPRPDSTPRP | -0.0382 |
| RRIRARPPRLPRPRPRPTDEPRP | 0.594 |
| RRIRMRPPRLPRPRPRPCCEPRP | 0.192 |
| RRIRLRPPRLPRPRPRPCDHPRP | -0.239 |
| RRIRQRPPRLPRPRPRPAESPRP | 0.0234 |
| RRIRVRPPRLPRPRPRPMAWPRP | -0.114 |
| RRIRERPPRLPRPRPRPCMGPRP | -0.0551 |
| RRIRFRPPRLPRPRPRPASDPRP | -0.32 |
| RRIRSRPPRLPRPRPRPMSQPRP | -0.0303 |
| RRIRGRPPRLPRPRPRPVYQPRP | 0.0322 |

| Sequence | shrunken log2 fold change |
| --- | --- |
| RRIRKRPPRLPRPRPRPNTLPRP | -0.0816 |
| RRIRHRPPRLPRPRPRPYTDPRP | -0.000921 |
| RRIRPRPPRLPRPRPRPDQAPRP | -0.0505 |
| RRIRGRPPRLPRPRPRPTHHPRP | 0.413 |
| RRIRVRPPRLPRPRPRPWELPRP | -0.487 |
| RRIRCRPPRLPRPRPRPPMNPRP | -0.0519 |
| RRIRCRPPRLPRPRPRPIMTPRP | -0.00708 |
| RRIRARPPRLPRPRPRPANTPRP | 0.0584 |
| RRIRSRPPRLPRPRPRPCPAPRP | -0.271 |
| RRIRKRPPRLPRPRPRPCYEPRP | -0.311 |
| RRIRVRPPRLPRPRPRPFPNPRP | 0.038 |
| RRIRSRPPRLPRPRPRPHYWPRP | -0.519 |
| RRIRARPPRLPRPRPRPQGRPRP | 0.104 |
| RRIRSRPPRLPRPRPRPWRGPRP | 0.59 |
| RRIRHRPPRLPRPRPRPLNSPRP | -0.883 |
| RRIRRRPPRLPRPRPRPISEPRP | 0.00118 |
| RRIRQRPPRLPRPRPRPTGWPRP | 0.19 |
| RRIRLRPPRLPRPRPRPYDVPRP | -0.366 |
| RRIRCRPPRLPRPRPRPWLRPRP | -0.0383 |
| RRIRHRPPRLPRPRPRPQREPRP | -0.0507 |
| RRIRLRPPRLPRPRPRPKAEPRP | 0.375 |
| RRIRYRPPRLPRPRPRPHYVPRP | -0.208 |
| RRIRRRPPRLPRPRPRPVYRPRP | -0.235 |
| RRIRIRPPRLPRPRPRPANCPRP | -1.1 |
| RRIRVRPPRLPRPRPRPNGEPRP | 0.0914 |

| Sequence | shrunken log2 fold change |
| --- | --- |
| RRIRHRPPRLPRPRPRPFCGPRP | 0.336 |
| RRIRFRPPRLPRPRPRPSDKPRP | -0.355 |
| RRIRARPPRLPRPRPRPKQQPRP | 0.569 |
| RRIRERPPRLPRPRPRPLGCPRP | -0.166 |
| RRIRYRPPRLPRPRPRPLKFPRP | -0.42 |
| RRIRHRPPRLPRPRPRPRNLPRP | 0.0727 |
| RRIRARPPRLPRPRPRPWRLPRP | 0.466 |
| RRIRTRPPRLPRPRPRPTEDPRP | 0.196 |
| RRIRSRPPRLPRPRPRPRSLPRP | -0.0256 |
| RRIRWRPPRLPRPRPRPERQPRP | 0.353 |
| RRIRIRPPRLPRPRPRPWHEPRP | 0.0173 |
| RRIRRRPPRLPRPRPRPSSCPRP | 0.055 |
| RRIRVRPPRLPRPRPRPQGNPRP | 0.055 |
| RRIRSRPPRLPRPRPRPCIWPRP | -0.121 |
| RRIRFRPPRLPRPRPRPYTAPRP | -1.07 |
| RRIRLRPPRLPRPRPRPFMEPRP | -0.35 |
| RRIRPRPPRLPRPRPRPMANPRP | 1.35 |
| RRIRVRPPRLPRPRPRPETYPRP | -0.316 |
| RRIRSRPPRLPRPRPRPCFCPRP | -0.489 |
| RRIRNRPPRLPRPRPRPVKQPRP | 0.00788 |
| RRIRVRPPRLPRPRPRPLVWPRP | 0.115 |
| RRIRNRPPRLPRPRPRPASLPRP | 0.0991 |
| RRIRVRPPRLPRPRPRPSCFPRP | -0.264 |
| RRIRCRPPRLPRPRPRPHLIPRP | 0.282 |
| RRIRARPPRLPRPRPRPTGRPRP | 0.215 |

| Sequence | shrunken log2 fold change |
| --- | --- |
| RRIRVRPPRLPRPRPRPIFWPRP | 0.00106 |
| RRIRVRPPRLPRPRPRPSGGPRP | 0.104 |
| RRIRTRPPRLPRPRPRPRVIPRP | -0.12 |
| RRIRCRPPRLPRPRPRPKNSPRP | -0.159 |
| RRIRNRPPRLPRPRPRPKGFPRP | -0.0324 |
| RRIRGRPPRLPRPRPRPCAKPRP | 0.661 |
| RRIRVRPPRLPRPRPRPKCAPRP | 0.0145 |
| RRIRKRPPRLPRPRPRPPDSPRP | 0.189 |
| RRIRFRPPRLPRPRPRPFTDPRP | -0.0297 |
| RRIRGRPPRLPRPRPRPNSWPRP | 0.356 |
| RRIRPRPPRLPRPRPRPCWVPRP | 0.143 |
| RRIRTRPPRLPRPRPRPDRYPRP | 0.04 |
| RRIRGRPPRLPRPRPRPFTGPRP | -0.186 |
| RRIRKRPPRLPRPRPRPEPAPRP | 1.45 |
| RRIRLRPPRLPRPRPRPSYYPRP | -0.963 |
| RRIRWRPPRLPRPRPRPQGMPRP | -0.225 |
| RRIRLRPPRLPRPRPRPIQYPRP | 0.147 |
| RRIRNRPPRLPRPRPRPCCNPRP | -0.432 |
| RRIRPRPPRLPRPRPRPAYPPRP | 0.0124 |
| RRIRLRPPRLPRPRPRPFFNPRP | -0.359 |
| RRIRGRPPRLPRPRPRPAARPRP | 1.16 |
| RRIRQRPPRLPRPRPRPDPTPRP | 0.119 |
| RRIRLRPPRLPRPRPRPEHIPRP | 0.0843 |
| RRIRKRPPRLPRPRPRPPSCPRP | 1.71 |
| RRIRGRPPRLPRPRPRPYTEPRP | -0.0586 |

| Sequence | shrunken log2 fold change |
| --- | --- |
| RRIRHRPPRLPRPRPRPPLSPRP | -0.0738 |
| RRIRKRPPRLPRPRPRPGLHPRP | 0.0334 |
| RRIRWRPPRLPRPRPRPVIQPRP | -0.2 |
| RRIRMRPPRLPRPRPRPNLTPRP | 0.0283 |
| RRIRRRPPRLPRPRPRPQRCPRP | 0.177 |
| RRIRLRPPRLPRPRPRPKLNPRP | -0.182 |
| RRIRQRPPRLPRPRPRPHRWPRP | 0.057 |
| RRIRDRPPRLPRPRPRPRIAPRP | 0.114 |
| RRIRARPPRLPRPRPRPCTFPRP | -0.365 |
| RRIRYRPPRLPRPRPRPQTFPRP | -0.459 |
| RRIRERPPRLPRPRPRPDELPRP | -0.00377 |
| RRIRERPPRLPRPRPRPYSNPRP | -0.905 |
| RRIRHRPPRLPRPRPRPGEPPRP | -0.0215 |
| RRIRKRPPRLPRPRPRPGYVPRP | -0.0738 |
| RRIRFRPPRLPRPRPRPFKIPRP | -0.049 |
| RRIRDRPPRLPRPRPRPESNPRP | 0.892 |
| RRIRTRPPRLPRPRPRPGCDPRP | 0.256 |
| RRIRRRPPRLPRPRPRPRQIPRP | 0.452 |
| RRIRQRPPRLPRPRPRPWGWPRP | 0.546 |
| RRIRARPPRLPRPRPRPETFPRP | -0.0526 |
| RRIRQRPPRLPRPRPRPVMHPRP | -0.679 |
| RRIRSRPPRLPRPRPRPWDEPRP | -0.0358 |
| RRIRKRPPRLPRPRPRPFVLPRP | 0.389 |
| RRIRWRPPRLPRPRPRPDQAPRP | 0.11 |
| RRIRARPPRLPRPRPRPMVSPRP | 0.124 |

| Sequence | shrunken log2 fold change |
| --- | --- |
| RRIRARPPRLPRPRPRPWATPRP | 0.494 |
| RRIRKRPPRLPRPRPRPSKKPRP | 0.0529 |
| RRIRVRPPRLPRPRPRPVHRPRP | 0.164 |
| RRIRFRPPRLPRPRPRPVTPPRP | 0.241 |
| RRIRRRPPRLPRPRPRPVPDPRP | 0.173 |
| RRIRRRPPRLPRPRPRPVFCPRP | 0.291 |
| RRIRWRPPRLPRPRPRPHAPPRP | 0.517 |
| RRIRPRPPRLPRPRPRPEEQPRP | 0.00406 |
| RRIRERPPRLPRPRPRPILEPRP | -0.0533 |
| RRIRMRPPRLPRPRPRPTRVPRP | 0.25 |
| RRIRERPPRLPRPRPRPFAYPRP | 0.155 |
| RRIRCRPPRLPRPRPRPKSEPRP | -0.0877 |
| RRIRKRPPRLPRPRPRPEKDPRP | 0.518 |
| RRIRYRPPRLPRPRPRPYCMPRP | -0.918 |
| RRIRYRPPRLPRPRPRPCMDPRP | -0.214 |
| RRIRHRPPRLPRPRPRPYLHPRP | -0.175 |
| RRIRHRPPRLPRPRPRPDTFPRP | -1.19 |
| RRIRYRPPRLPRPRPRPFPQPRP | -0.137 |
| RRIRSRPPRLPRPRPRPCPDPRP | -0.388 |
| RRIRWRPPRLPRPRPRPPWKPRP | 0.24 |
| RRIRRRPPRLPRPRPRPCYPPRP | -0.0837 |
| RRIRMRPPRLPRPRPRPMRRPRP | 0.487 |
| RRIRHRPPRLPRPRPRPEVIPRP | 0.0357 |
| RRIRERPPRLPRPRPRPWRGPRP | 0.166 |
| RRIRWRPPRLPRPRPRPHNTPRP | -0.391 |
